Measured values taken from publication PMC8699718, “A structurally conserved site in AUP1 binds the E2 enzyme UBE2G2 and is essential for ER-associated degradation” (PLoS Biology, 2021).
Ends that are not written are not given here.

System: RI332 (truncated Ribophorin I)
Assay: CHX chase: RI332 degradation in HT1080 AUP1 KO cells
Type: cell-based, human
Conditions: GFP-G2BR^AUP1 co-expressed with TM-UBE2G2, HT1080 AUP1 KO
Text: Fig 2 The G2BR of AUP1 is required for ERAD of mutant ribophorin and GFP^u. (A) HT1080 or HRD1 KO cells were transfected with plasmid encoding RI332-MYC and with plasmid encoding HRD1 as indicated. Cells were subject to CHX chase and RI332-MYC degradation monitored by western blot. GFP serves as a transfection efficiency control. (B) HT1080 or AUP1 KO cells were transfected with plasmid encoding RI332-MYC and AUP1-FLAG WT or deletion mutants assessed for RI332 degradation. Lower band (*) in MYC blot is nonspecific. (C, D) HEK293 or AUP1 KO cells were assessed for RI332 turnover as in (B). (E) HT1080 or AUP1 KO cells were transfected with GFP^u plasmid, and its degradation assessed by emetine chase, which has previously been used to assess GFP^u turnover. […] (F) HT1080 AUP1 KO cells were transfected with GFP^u and the indicated AUP1-FLAG WT or deletion mutants, and GFP^u degradation assessed as in (E). […]
Fig 8 Recruitment of UBE2G2 to the ER membrane and activation by G2BR^AUP1 is required for ERAD. (A) HT1080 or AUP1 KO cells were transfected with NHK-HA and either empty vector or MYC-UBE2G2 and NHK turnover assessed by CHX chase. (B) AUP1 KO cells were transfected with NHK-HA and GFP fusions of either a scrambled G2BR sequence (SCR) or G2BR^AUP1 and NHK turnover and levels of endogenous UBE2G2 assessed. […] (G) U-2 OS cells were transfected as in (F), and localization assessed by SIM. […]

**Q.** With “GFP-G2BR^AUP1: GFP fusion of AUP1 aa 378 to 404 (SSWARQESLQERKQALYEYARRRFTER; also: GFP fusion; UniProt Q9Y679 378-404, looked up, fragment)” as the substance, how does the “RI332 degradation, soluble G2BR with TM-UBE2G2” value read?
**A.** restored degradation of RI332
